In the RNAGym collection of RNA variant scans (doi:10.1093/molbev/msab373):

B1: Azoarcus group I ribozyme (parent)
chain: GUGCCUUGCGCCGGGAAACCACGCAAGGGAUGGUGUCAAAUUCGGCGAAACCUAAGCGCCCGCCCGGGCGUAUGGCAACGCCGAGCCAAGCUUCGGCGCCUGCGCCGAUGAAGGUGUAGAGACUAGACGGCACCCACCUAAGGCAAACGCUAUGGUGAAGGCAUAGUCCAGGGAGUGGCGAAAGUCACACAAACCGG

Variants of: B1
Test: reverse-splicing fitness (ratio to wild type); higher = more active; in vitro selection; Mg2+ level not given
Summary of the method: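 An in vitro group I ribozyme library with randomized positions was T7-transcribed and gel-purified. In triplicate, 10 pmol RNA in EPPS pH 7.5 was reacted with 50 pmoles of a 30-nt RNA substrate for 1 h at 37 °C across several added MgCl2 levels (1–48 mM), then stopped with EDTA. Products were reverse transcribed from a substrate-complementary primer, PCR-amplified and sequenced (HiSeq 4000). Fitness is a variant's read proportion after selection over that before, normalised to wild type.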

Variant	reverse-splicing fitness
C82U A111C A120U A145C C150U C169U U176G	0.00224
C82U A111C A120U A145C C150U C169U U176C	0.00255
C82U A111C A120G C150G C169U U176A	0.00853
C82U A111C A120G C150G C169U U176G	0.00505
C82U A111C A120G C150G C169U U176C	0.0121
C82U A111C A120U A145U C150A C169G U176C	0.003
C82U A111C A120U A145U C150A C169G U176G	0.00205
C82U A111C A120U A145U C150A C169G U176A	0.00239
C82U A111C A145C C150A C169U	0.00887
C82U A111C A145C C150A C169G	0.00773
C82U A111C A145C C150A C169A	0.00786
C82U A111C A120U A145C C169A U176C	0.00244
C82U A111C A120U A145C C169A U176A	0.00241
C82U A111C A120U A145C C169A U176G	0.0017
C82U A111C A120U A145C C150A C169U	0.00301
C82U A111C A120U A145C C150A C169A	0.00255
C82U A111C A120U A145C C150A C169G	0.00233
C82U A111C A120U C150U C169G U176A	0.00387
C82U A111C A120U C150U C169G U176G	0.00228
C82U A111C A120U C150U C169G U176C	0.00314
C82U A111C A120U C169G	0.00401

Variant	reverse-splicing fitness
C82U A111C A120U C169U	0.00529
C82U A111C A120U C169A	0.00322
C82U A111C A120G C169U U176C	0.0142
C82U A111C A120G C169U U176A	0.0158
C82U A111C A120G C169U U176G	0.00376
C82U A111C A120G C150U C169G U176G	0.00441
C82U A111C A120G C150U C169G U176C	0.0161
C82U A111C A120G C150U C169G U176A	0.0121
C82U A111C A120U A145U C150A C169A U176A	0.00217
C82U A111C A120U A145U C150A C169A U176C	0.00253
C82U A111C A120U A145U C150A C169A U176G	0.00255
C82U A111C A120U C150A C169U U176C	0.0037
C82U A111C A120U C150A C169U U176G	0.00241
C82U A111C A120U C150A C169U U176A	0.00699
C82U A111C A120G C169G U176C	0.0209
C82U A111C A120G C169G U176A	0.0161
C82U A111C A120G C169G U176G	0.00413
C82U A111C A120U A145G C150G U176C	0.00806
C82U A111C A120U A145G C150G U176G	0.00395
C82U A111C A120U A145G C150G U176A	0.00648
C82U A111C A120G C169U	0.0077

Variant	reverse-splicing fitness
C82U A111C A120G C169G	0.0104
C82U A111C A120G C169A	0.00844
C82U A111C A120U C150U C169U U176A	0.00612
C82U A111C A120U C150U C169U U176C	0.00387
C82U A111C A120U C150U C169U U176G	0.00197
C82U A111C A120U C150U U176A	0.00642
C82U A111C A120U C150U U176C	0.00907
C82U A111C A120U C150U U176G	0.00332
C82U A111C A120U A145C C150U U176A	0.00424
C82U A111C A120U A145C C150U U176C	0.00591
C82U A111C A120U A145C C150U U176G	0.0029
C82U A111C A120U A145C C150A C169U U176C	0.00249
C82U A111C A120U A145C C150A C169U U176A	0.00323
C82U A111C A120U A145C C150A C169U U176G	0.00207
C82U A111C A145C C150A C169U U176G	0.00709
C82U A111C A145C C150A C169U U176A	0.0154
C82U A111C A145C C150A C169U U176C	0.0106
C82U A111C A120U A145C C150G U176A	0.00275
C82U A111C A120U A145C C150G U176C	0.00485
C82U A111C A120U A145C C150G U176G	0.00239
C82U A111C A120U C150G C169U	0.00611

Variant	reverse-splicing fitness
C82U A111C A120U C150G C169A	0.00691
C82U A111C A120U C150G C169G	0.00621
C82U A111C A120U A145G C169A	0.00276
C82U A111C A120U A145G C169G	0.0042
C82U A111C A120U A145G C169U	0.00448
C82U A111C A120U A145G C150G C169G	0.00651
C82U A111C A120U A145G C150G C169A	0.00772
C82U A111C A120U A145G C150G C169U	0.0067
C82U A111C A120U	0.0257
C82U A111C A120G C150A C169U U176G	0.00544
C82U A111C A120G C150A C169U U176A	0.0192
C82U A111C A120G C150A C169U U176C	0.0146
C82U A111C A120U A145U C150G C169U	0.00311
C82U A111C A120U A145U C150G C169G	0.00306
C82U A111C A120U A145U C150G C169A	0.00391
C82U A111C A120U A145C C169G U176C	0.00215
C82U A111C A120U A145C C169G U176A	0.00206
C82U A111C A120U A145C C169G U176G	0.00186
C82U A111C A120U A145C U176G	0.00296
C82U A111C A120U A145C U176A	0.00655
C82U A111C A120U A145C U176C	0.00705
